Experimental data taken from patent US20020045205A1, “Method for autoactivation of procaspase 8” (priority 1998, published 2002).

Tests used:
[1] = Cleavage of chromogenic and fluorogenic caspase substrates; format: biochemical, human; conditions: substrates Ac-DEVD-pNA, Ac-IETD-pNA, Ac-DEVD-AMC
Excerpt: Enzyme activity of caspase 8 preparations was monitored using the chromogenic substrates Ac-DEVD-pNA or Ac-IETD-pNA or the fluorogenic substrates Ac-DEVD-AMC or Ac-IETD-AMC. For the chromogenic substrates, kinetic release of para-nitroaniline (pNA) was followed at 405 nm using either a Lambda 6 spectrophotometer or in a microtitre plate format using a Molecular Devices Thermomax plate reader with 405 nm wavelength filter. Kinetic enzyme assays monitoring the release of 7-amino-4-methyl-coumarin from the fluorogenic substrates were conducted using a Molecular Devices fmax plate reader with Ex=355 nm and Em=460 nm.

[2] = substrate: CC(=O)N[C@@H](CC(=O)O)C(=O)N[C@@H](CCC(=O)O)C(=O)N[C@H](C(=O)N[C@@H](CC(=O)O)C(=O)Nc1ccc([N+](=O)[O-])cc1)C(C)C; assay: Substrate Km in caspase 8 enzyme assay; format: biochemical, human; conditions: other: 100 mM sodium phosphate/10 mM Tris/100 mM DTT, pH 7.50, 37° C., pH 7.5
Procedure: Unless otherwise indicated, all specific enzyme activity measurements described herein were made using the Ac-DEVD-pNA substrate. […] Initial rates were determined as follows: 100 μl of 1M DTT, 790 μl 100 mM sodium phosphate/10 mM Tris, pH 7.50, and 10 μl of caspase 8 sample solution (for protein concentrations near 0.5 mg/ml) were added to a quartz semi-micro cuvette.

Row | activity against caspase substrates [1] | Molecule | Km [2] [µM]
1 | no measurable activity | Concentrated, but unprocessed, protein: recombinant procaspase 8 polypeptide lacking the DED prodomain, with (His)6 tag, SEQ ID NO:1 (protein, listed as Homo sapiens, (His)6 tag) MRGSHHHHHHGSMTISDSPREQDSESQTLDKVYQMKSKPRGYCLIINNHNFAKAREKVPKLHSIRDRNGTHLDAGALTTTFEELHFEIKPHDDCTVEQIYEILKIYQLMDHSNMDCFICCILSHGDKGIIYGTDGQEAPIYELTSQFTGLKCPSLAGKPKVFFIQACQGDNYQKGIPVETDSEEQPYLEMDLSSPQTRYIPDEADFLLGMATVNNCVSYRNPAEGTWYIQSLCQSLRERCPRGDDILTILTEVNYEVSNKDDKKNMGKQMPQPTFTLRKKLVFPSD | –
2 | – | caspase 8 (Homo sapiens) (protein, the 19 kDa peptide (S ^18PREQD . . . IPVETD^181); the 11 kDa chain (L^192SSPQ . . . LVFPSD^286); (His)6 (MRGS(H)6 leader, 12-residue prosegment from pQE30) (N, cleaved yes); made in house; host or cells: E. coli M15 (pREP4), vector pQE30) chain 1: SPREQDSESQTLDKVYQMKSKPRGYCLIINNHNFAKAREKVPKLHSIRDRNGTHLDAGALTTTFEELHFEIKPHDDCTVEQIYEILKIYQLMDHSNMDCFICCILSHGDKGIIYGTDGQEAPIYELTSQFTGLKCPSLAGKPKVFFIQACQGDNYQKGIPVETD chain 2: LSSPQTRYIPDEADFLLGMATVNNCVSYRNPAEGTWYIQSLCQSLRERCPRGDDILTILTEVNYEVSNKDDKKNMGKQMPQPTFTLRKKLVFPSD | 167
